According to patent US20230059181A1 (EPSILOGEN, published 2023):

Columns and labels:
[1] = target: T1, HMW-MAA (high molecular weight-melanoma associated antigen) on A375 cells (UniProt Q6UVK1 30-2322); experiment: flow cytometry on A375 cells, FITC goat anti-human IgG secondary
T1 construct: whole, on cells; also called CSPG4; chondroitin sulfate proteoglycan 4
Description: (§1) A375 cells were cultured using standard methods. When A375 cells were confluent, the cells were harvested. In brief, cells were washed with PBS before incubation with TrypLE™ at 37° C. for 10 minutes to detach the cells from the flask. Cells were resuspended in 10 mL of media and centrifuged for 3 minutes at 250 g. Cells were then resuspended in 1 mL FACS buffer and counted on the Cellometer® to determine the cell number and viability. Following this, cells were diluted to 1×10⁶ cells per mL with FACS buffer, and 100 μL of this cell suspension plated per well on a plate.
(§2) Binding of purified IGEGs to A375 cells (ATCC, Virginia, US) was assessed by flow cytometry using a Attune® NxT Acoustic Focusing Cytometer running Attune Software V3.1.2 (ThermoFisher Scientific, Loughborough, UK). […] Cells were washed and resuspended in FACS buffer and then acquired on the Attune® NxT Acoustic Focusing Cytometer. The data was analysed using FlowJo™ Software Version 10 (Becton, Dickinson and Company, New Jersey, US) and GraphPad Prism 8 (GraphPad Software, California, US).

[2] = target: T2, Human CD64 (FcγRI), His-tagged (human, UniProt P12314 16-288); experiment: SPR single cycle, 1:1 fit, His-tagged receptor captured, antibody as analyte
T2 construct: also called FcgRI; hFcγRI
T2 sequence (P12314 16-288 limits assumed): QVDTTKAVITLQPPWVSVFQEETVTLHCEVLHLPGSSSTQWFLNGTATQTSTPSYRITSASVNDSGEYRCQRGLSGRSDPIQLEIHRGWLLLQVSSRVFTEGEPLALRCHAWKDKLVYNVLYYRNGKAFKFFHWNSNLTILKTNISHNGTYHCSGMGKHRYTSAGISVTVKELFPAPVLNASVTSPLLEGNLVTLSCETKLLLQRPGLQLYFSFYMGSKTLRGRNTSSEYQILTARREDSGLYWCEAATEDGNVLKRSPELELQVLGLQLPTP
Excerpt: (§3) FcRs were captured on a CM5 sensor chip pre-coupled using a His capture kit (Cytiva, Uppsala, Sweden) using standard amine chemistry.
(§4) At the start of each cycle His-tagged Fc receptors diluted in HEPES buffered saline containing 0.05% v/v Surfactant P20 (HBS-P+) were loaded to a specified RU level (Table 7). A five point, three-fold dilution range of test antibody without regeneration between each concentration was used for each receptor tested. […] In all cases, antibodies were passed over the chip in increasing concentrations followed by a single dissociation step. Following dissociation, the chip was regenerated with two injections of Glycine pH 1.5. The signal from the reference channel Fc1 (blank) was subtracted from that of the Fc loaded with receptor to correct for differences in non-specific binding to the reference surface.

[3] = target: T3, Human FcεRIα (Fc epsilon RI alpha), His-tagged (human, UniProt P12319 26-205); experiment: as above
T3 construct: also called FceRIa; hFcεR1
T3 sequence (looked up): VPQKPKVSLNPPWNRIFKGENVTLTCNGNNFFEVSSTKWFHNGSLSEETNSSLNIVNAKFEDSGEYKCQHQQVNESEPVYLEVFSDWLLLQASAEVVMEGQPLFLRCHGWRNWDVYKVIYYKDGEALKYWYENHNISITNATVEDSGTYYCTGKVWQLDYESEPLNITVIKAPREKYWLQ
Excerpt: as §3, §4

[4] = target: T4, Human CD16A 176 Val (FcγRIIIA176Val), His-tagged (human, UniProt P08637 17-208); experiment: SPR single cycle, steady state fit, His-tagged receptor captured, antibody as analyte
T4 construct: also called FcγRIIIA (CD16A); hFcγRIIIa 176V
T4 sequence (P08637 17-208 F176V limits assumed): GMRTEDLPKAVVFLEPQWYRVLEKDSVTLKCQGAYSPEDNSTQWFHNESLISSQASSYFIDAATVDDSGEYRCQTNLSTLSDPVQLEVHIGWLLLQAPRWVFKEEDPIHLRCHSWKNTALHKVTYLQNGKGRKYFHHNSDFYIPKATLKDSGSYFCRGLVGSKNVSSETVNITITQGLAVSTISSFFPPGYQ
Excerpt: as §3, §4

[5] = target: T5, Human CD16A 176 Phe (FcγRIIIA176Phe), His-tagged (human, UniProt P08637 17-208); experiment: as above
T5 construct: also called hFcγRIIIa 176F
T5 sequence (P08637 17-208 limits assumed): as the sequence (P08637 17-208 F176V limits assumed) above, with V160F counted along it
Excerpt: as §3, §4

[6] = target: T6, Human CD16B (FcγRIIIB), His-tagged (human, UniProt O75015 17-200); experiment: as above
T6 construct: also called hFcγRIIIb
T6 sequence (O75015 17-200 limits assumed): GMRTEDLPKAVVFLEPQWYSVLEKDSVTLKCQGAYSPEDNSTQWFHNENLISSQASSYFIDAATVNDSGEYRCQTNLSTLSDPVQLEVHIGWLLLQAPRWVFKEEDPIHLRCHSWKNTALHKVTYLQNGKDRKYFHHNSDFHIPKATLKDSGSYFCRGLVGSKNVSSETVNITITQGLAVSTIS
Excerpt: as §3, §4

[7] = target: T7, Human FcRn (neonatal Fc receptor) (human, UniProt P55899 24-297; P61769 21-119); experiment: SPR steady state, pH 6.0, FcRn amine-coupled, antibody as analyte; pH 6.0; 31.25 nM to 2000 nM antibody over hFcRn on the chip
T7 construct: also called hFcRn
T7 sequence (P55899 24-297 limits assumed, chain 1 of 2): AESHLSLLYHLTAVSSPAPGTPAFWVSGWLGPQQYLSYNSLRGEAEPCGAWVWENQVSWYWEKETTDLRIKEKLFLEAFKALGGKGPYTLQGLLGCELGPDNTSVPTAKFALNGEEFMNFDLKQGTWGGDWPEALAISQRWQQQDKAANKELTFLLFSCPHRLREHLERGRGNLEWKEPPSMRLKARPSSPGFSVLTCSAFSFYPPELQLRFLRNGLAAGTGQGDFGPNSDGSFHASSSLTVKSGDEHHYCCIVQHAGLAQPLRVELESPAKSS
T7 sequence (P61769 21-119 limits assumed, chain 2 of 2): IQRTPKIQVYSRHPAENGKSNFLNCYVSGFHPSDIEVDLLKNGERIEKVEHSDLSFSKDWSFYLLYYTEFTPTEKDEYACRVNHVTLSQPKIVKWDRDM
Description: (§5) Antibodies were passed over the chip with increasing concentrations at a flow rate of 30 μl/min and at 25° C. The injection time was 40 s per concentration and the dissociation time was 75 s. […] Interactions were analysed using a steady state model (see FIGS. 19a to 19d for example data).

[8] = target: T5, Human CD16A 176 Phe (FcγRIIIA176Phe), …; experiment: SPR single cycle, His-tagged receptor captured, antibody as analyte
Excerpt: as §3, §4

[9] = target: T6, Human CD16B (FcγRIIIB), His-tagged; experiment: as above
Excerpt: as §3, §4

[10] = target: T1, HMW-MAA (high molecular weight-melanoma …); experiment: flow cytometry on A375 cells, FITC goat anti-human IgE secondary
Description: as §1, §2

[11] = target: T7, Human FcRn (neonatal Fc receptor); experiment: SPR (Biacore T200), hFcRn amine-coupled to CM5 chip, antibody as analyte 31.25-2000 nM, pH 6.0, raw sensorgrams
Description: as §5

[12] = target: T2, Human CD64 (FcγRI), His-tagged; experiment: SPR (Biacore T200) single cycle kinetics, His-tagged FcγRI captured on anti-His chip, antibody as analyte 0.411-33.33 nM
Excerpt: as §3, §4

[13] = target: T4, Human CD16A 176 Val (FcγRIIIA176Val), …; experiment: SPR (Biacore T200) single cycle, His-tagged FcγRIIIA176Val captured on anti-His chip, antibody as analyte, raw sensorgrams
Excerpt: as §3, §4

[14] = target: T7, Human FcRn (neonatal Fc receptor); experiment: SPR (Biacore T200), hFcRn amine-coupled to CM5 chip, antibody as analyte 31.25-2000 nM, pH 6.0, raw sensorgrams [Continued]
Description: as §5

T1 sequence (Q6UVK1 30-2322): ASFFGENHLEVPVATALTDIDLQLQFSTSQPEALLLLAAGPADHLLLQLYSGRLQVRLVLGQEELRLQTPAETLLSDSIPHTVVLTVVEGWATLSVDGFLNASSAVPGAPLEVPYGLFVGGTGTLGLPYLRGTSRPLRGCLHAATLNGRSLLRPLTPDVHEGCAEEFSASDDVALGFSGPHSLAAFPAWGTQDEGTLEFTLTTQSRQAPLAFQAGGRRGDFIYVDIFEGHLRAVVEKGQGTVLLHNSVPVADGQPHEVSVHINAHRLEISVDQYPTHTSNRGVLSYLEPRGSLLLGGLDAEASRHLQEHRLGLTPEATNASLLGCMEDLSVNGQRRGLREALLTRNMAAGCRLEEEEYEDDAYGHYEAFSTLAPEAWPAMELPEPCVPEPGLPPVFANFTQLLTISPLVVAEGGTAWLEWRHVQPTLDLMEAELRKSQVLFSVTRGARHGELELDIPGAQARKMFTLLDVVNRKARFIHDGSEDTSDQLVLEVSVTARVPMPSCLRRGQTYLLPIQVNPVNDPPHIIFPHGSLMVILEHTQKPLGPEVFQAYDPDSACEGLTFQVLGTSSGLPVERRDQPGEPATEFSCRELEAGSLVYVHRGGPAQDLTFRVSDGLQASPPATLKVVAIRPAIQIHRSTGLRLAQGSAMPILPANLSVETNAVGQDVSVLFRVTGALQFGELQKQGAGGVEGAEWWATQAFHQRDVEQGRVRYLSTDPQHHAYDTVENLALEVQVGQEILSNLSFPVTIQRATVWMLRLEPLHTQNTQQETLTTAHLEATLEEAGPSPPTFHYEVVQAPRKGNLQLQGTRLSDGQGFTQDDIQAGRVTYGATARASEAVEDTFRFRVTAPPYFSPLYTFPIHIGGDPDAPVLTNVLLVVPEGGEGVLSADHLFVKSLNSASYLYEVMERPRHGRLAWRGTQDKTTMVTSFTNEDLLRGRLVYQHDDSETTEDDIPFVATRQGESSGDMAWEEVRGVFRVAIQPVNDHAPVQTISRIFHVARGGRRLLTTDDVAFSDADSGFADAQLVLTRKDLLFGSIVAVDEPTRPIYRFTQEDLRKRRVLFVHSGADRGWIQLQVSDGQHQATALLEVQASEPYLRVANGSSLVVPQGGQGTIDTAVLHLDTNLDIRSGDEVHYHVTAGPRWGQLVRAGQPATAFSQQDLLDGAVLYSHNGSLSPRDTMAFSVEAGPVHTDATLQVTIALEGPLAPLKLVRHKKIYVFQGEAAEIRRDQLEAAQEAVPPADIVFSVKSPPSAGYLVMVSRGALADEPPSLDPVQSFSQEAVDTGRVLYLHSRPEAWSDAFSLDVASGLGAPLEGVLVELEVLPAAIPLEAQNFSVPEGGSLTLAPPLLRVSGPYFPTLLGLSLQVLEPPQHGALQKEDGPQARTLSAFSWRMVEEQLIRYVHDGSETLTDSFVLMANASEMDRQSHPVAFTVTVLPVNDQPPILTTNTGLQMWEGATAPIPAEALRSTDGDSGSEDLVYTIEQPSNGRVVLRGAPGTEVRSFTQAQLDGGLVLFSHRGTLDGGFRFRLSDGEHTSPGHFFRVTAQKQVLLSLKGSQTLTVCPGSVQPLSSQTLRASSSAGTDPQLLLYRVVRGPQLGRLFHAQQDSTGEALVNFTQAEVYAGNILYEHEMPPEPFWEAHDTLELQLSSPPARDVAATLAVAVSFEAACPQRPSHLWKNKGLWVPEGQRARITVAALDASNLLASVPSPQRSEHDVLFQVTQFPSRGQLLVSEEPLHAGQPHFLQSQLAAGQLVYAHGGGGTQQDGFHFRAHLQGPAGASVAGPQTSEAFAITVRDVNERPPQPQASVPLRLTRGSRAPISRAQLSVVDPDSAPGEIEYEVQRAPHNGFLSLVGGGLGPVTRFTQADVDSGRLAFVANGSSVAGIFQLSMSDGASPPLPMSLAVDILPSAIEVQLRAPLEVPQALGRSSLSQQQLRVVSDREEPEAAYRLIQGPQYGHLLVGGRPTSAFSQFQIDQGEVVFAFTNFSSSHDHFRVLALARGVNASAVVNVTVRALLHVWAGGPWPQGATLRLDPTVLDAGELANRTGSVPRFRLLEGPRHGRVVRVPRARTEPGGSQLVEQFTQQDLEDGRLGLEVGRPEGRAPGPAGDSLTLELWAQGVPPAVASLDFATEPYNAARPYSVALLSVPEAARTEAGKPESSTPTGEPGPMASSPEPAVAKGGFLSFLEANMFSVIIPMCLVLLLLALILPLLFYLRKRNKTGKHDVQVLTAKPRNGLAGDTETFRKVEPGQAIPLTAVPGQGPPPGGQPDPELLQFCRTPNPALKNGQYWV

B1: HMW-MAA_IGEG (HMW-MAA IgE IgG-Fc) (antibody)
heavy: not shown
light: DIQLTQSPSFLSASVGDRVTITCKASQNVDTNVAWYQQKPGKAPKPLLFSASYRYTGVPSRFSGSGSGTDFTLTISSLQPEDFATYFCQQYNSYPLTFGGGTKVEIKRTVAAPSVFIFPPSDEQLKSGTASVVCLLNNFYPREAKVQWKVDNALQSGNSQESVTEQDSKDSTYSLSSTLTLSKADYEKHKVYACEVTHQGLSSPVTKSFNRGEC
notes: also called CH IGEG
binding result [1]: binds | Kd [2]: 1.63 nM | Kd [3]: 0.599 nM | Kd [4]: 386 nM | Kd [5]: 665 nM | Kd [6]: 1480 nM | Kd [7]: 1020 nM

B2: HMW-MAA_IgE (antibody)
heavy: EVQLVQSGGGLVQPGGSLKLSCAVSGFTFSNYWMNWVRQAPGKGLEWVGEIRLKSNNFGRYYAESVKGRFTISRDDSKNTAYLQMNSLKTEDTAVYYCTSYGNYVGHYFDHWGQGTLVTVSSASTQSPSVFPLTRCCKNIPSNATSVTLGCLATGYFPEPVMVTWDTGSLNGTTMTLPATTLTLSGHYATISLLTVSGAWAKQMFTCRVAHTPSSTDWVDNKTFSVCSRDFTPPTVKILQSSCDGGGHFPPTIQLLCLVSGYTPGTINITWLEDGQVMDVDLSTASTTQEGELASTQSELTLSQKHWLSDRTYTCQVTYQGHTFEDSTKKCADSNPRGVSAYLSRPSPFDLFIRKSPTITCLVVDLAPSKGTVNLTWSRASGKPVNHSTRKEEKQRNGTLTVTSTLPVGTRDWIEGETYQCRVTHPHLPRALMRSTTKTSGPRAAPEVYAFATPEWPGSRDKRTLACLIQNFMPEDISVQWLHNEVQLPDARHSTTQPRKTKGSGFFVFSRLEVTRAEWEQKDEFICRAVHEAASPSQTVQRAVSVNPGK
light: DIQLTQSPSFLSASVGDRVTITCKASQNVDTNVAWYQQKPGKAPKPLLFSASYRYTGVPSRFSGSGSGTDFTLTISSLQPEDFATYFCQQYNSYPLTFGGGTKVEIKRTVAAPSVFIFPPSDEQLKSGTASVVCLLNNFYPREAKVQWKVDNALQSGNSQESVTEQDSKDSTYSLSSTLTLSKADYEKHKVYACEVTHQGLSSPVTKSFNRGEC
notes: also called HMW-MAA IgE-WT; anti-HMW-MAA IgE
binding result [8]: no binding (tested: 8000 nM) | binding result [9]: no binding (tested: 8000 nM) | binding result [10]: binds | Kd [3]: 0.508 nM | binding result [11]: no binding (tested: 2000 nM) | binding result [12]: no binding (tested: 33.33 nM) | binding result [13]: no binding (tested: 3e-6 M (top point of FIG. 17D))

B3: HMW-MAA_IGEG-C220S (HMW-MAA IgE-IgG-Fc C220S) (antibody)
heavy: not shown
light: DIQLTQSPSFLSASVGDRVTITCKASQNVDTNVAWYQQKPGKAPKPLLFSASYRYTGVPSRFSGSGSGTDFTLTISSLQPEDFATYFCQQYNSYPLTFGGGTKVEIKRTVAAPSVFIFPPSDEQLKSGTASVVCLLNNFYPREAKVQWKVDNALQSGNSQESVTEQDSKDSTYSLSSTLTLSKADYEKHKVYACEVTHQGLSSPVTKSFNRGEC
binding result [1]: binds | Kd [2]: 1.67 nM | Kd [3]: 0.493 nM | Kd [4]: 400 nM | Kd [5]: 775 nM | Kd [6]: 1870 nM | Kd [7]: 1050 nM

B4: HMW-MAA_IGEG-dFcRn (antibody, human IgG1, kappa)
heavy: EVQLVQSGGGLVQPGGSLKLSCAVSGFTFSNYWMNWVRQAPGKGLEWVGEIRLKSNNFGRYYAESVKGRFTISRDDSKNTAYLQMNSLKTEDTAVYYCTSYGNYVGHYFDHWGQGTLVTVSSASTQSPSVFPLTRCCKNIPSNATSVTLGCLATGYFPEPVMVTWDTGSLNGTTMTLPATTLTLSGHYATISLLTVSGAWAKQMFTCRVAHTPSSTDWVDNKTFSVCSRDFTPPTVKILQSSCDGGGHFPPTIQLLCLVSGYTPGTINITWLEDGQVMDVDLSTASTTQEGELASTQSELTLSQKHWLSDRTYTCQVTYQGHTFEDSTKKCADSNPRGVSAYLSRPSPFDLFIRKSPTITCLVVDLAPSKGTVNLTWSRASGKPVNHSTRKEEKQRNGTLTVTSTLPVGTRDWIEGETYQCRVTHPHLPRALMRSTTKTSGPRAAPEVYAFATPEWPGSRDKRTLACLIQNFMPEDISVQWLHNEVQLPDARHSTTQPRKTKGSGFFVFSRLEVTRAEWEQKDEFICRAVHEAASPSQTVQRAVSVNPGKRSEPKSCDKTHTCPPCPAPELLGGPSVFLFPPKPKDTLMASRTPEVTCVVVDVSHEDPEVKFNWYVDGVEVHNAKTKPREEQYNSTYRVVSVLTVLAQDWLNGKEYKCKVSNKALPAPIEKTISKAKGQPREPQVYTLPPSREEMTKNQVSLTCLVKGFYPSDIAVEWESNGQPENNYKTTPPVLDSDGSFFLYSKLTVDKSRWQQGNVFSCSVMHEALHNAYTQKSLSLSPGK
light: DIQLTQSPSFLSASVGDRVTITCKASQNVDTNVAWYQQKPGKAPKPLLFSASYRYTGVPSRFSGSGSGTDFTLTISSLQPEDFATYFCQQYNSYPLTFGGGTKVEIKRTVAAPSVFIFPPSDEQLKSGTASVVCLLNNFYPREAKVQWKVDNALQSGNSQESVTEQDSKDSTYSLSSTLTLSKADYEKHKVYACEVTHQGLSSPVTKSFNRGEC
binding result [1]: binds | Kd [2]: 2.02 nM | Kd [3]: 0.556 nM | Kd [4]: 535 nM | Kd [5]: 960 nM | Kd [6]: 2030 nM | binding result [14]: no binding (tested: 2000 nM)

B5: HMW-MAA_IGEG-C220S-dFcRn (antibody)
heavy: EVQLVQSGGGLVQPGGSLKLSCAVSGFTFSNYWMNWVRQAPGKGLEWVGEIRLKSNNFGRYYAESVKGRFTISRDDSKNTAYLQMNSLKTEDTAVYYCTSYGNYVGHYFDHWGQGTLVTVSSASTQSPSVFPLTRCCKNIPSNATSVTLGCLATGYFPEPVMVTWDTGSLNGTTMTLPATTLTLSGHYATISLLTVSGAWAKQMFTCRVAHTPSSTDWVDNKTFSVCSRDFTPPTVKILQSSCDGGGHFPPTIQLLCLVSGYTPGTINITWLEDGQVMDVDLSTASTTQEGELASTQSELTLSQKHWLSDRTYTCQVTYQGHTFEDSTKKCADSNPRGVSAYLSRPSPFDLFIRKSPTITCLVVDLAPSKGTVNLTWSRASGKPVNHSTRKEEKQRNGTLTVTSTLPVGTRDWIEGETYQCRVTHPHLPRALMRSTTKTSGPRAAPEVYAFATPEWPGSRDKRTLACLIQNFMPEDISVQWLHNEVQLPDARHSTTQPRKTKGSGFFVFSRLEVTRAEWEQKDEFICRAVHEAASPSQTVQRAVSVNPGKRSEPKSSDKTHTCPPCPAPELLGGPSVFLFPPKPKDTLMASRTPEVTCVVVDVSHEDPEVKFNWYVDGVEVHNAKTKPREEQYNSTYRVVSVLTVLAQDWLNGKEYKCKVSNKALPAPIEKTISKAKGQPREPQVYTLPPSREEMTKNQVSLTCLVKGFYPSDIAVEWESNGQPENNYKTTPPVLDSDGSFFLYSKLTVDKSRWQQGNVFSCSVMHEALHNAYTQKSLSLSPGK
light: DIQLTQSPSFLSASVGDRVTITCKASQNVDTNVAWYQQKPGKAPKPLLFSASYRYTGVPSRFSGSGSGTDFTLTISSLQPEDFATYFCQQYNSYPLTFGGGTKVEIKRTVAAPSVFIFPPSDEQLKSGTASVVCLLNNFYPREAKVQWKVDNALQSGNSQESVTEQDSKDSTYSLSSTLTLSKADYEKHKVYACEVTHQGLSSPVTKSFNRGEC
binding result [1]: binds | Kd [2]: 2.18 nM | Kd [3]: 0.535 nM | Kd [4]: 601 nM | Kd [5]: 1160 nM | Kd [6]: 2780 nM | binding result [14]: no binding (tested: 2000 nM)
